In the nanobody polyreactivity screen of Harvey et al. (2022):

Assay: yeast display, Sf9 membrane polyspecificity reagent, FACS + sequencing; frameworks hold sequencing errors
Method in brief: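 Using colony PCR, genes from sorted yeast display clones were amplified, then sequenced on MiSeq at 2 × 250 and filtered by CDR length. The clones had been stained with 10% biotinylated, detergent-solubilized Sf9 membrane reagent for 1 hour at 4 °C and sorted by FACS into low and high (top ~1%) gates on anti-HA and streptavidin fluorescence. Polyreactivity labels come from the gate of origin.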

Row | Sequence | polyreactivity (PSR sort gate)
1 | QVQLVESGGGLVQAGGSLRLSCAASGRTFGYYAMGWYRQAPGKERELVAAISTRSGSTYYADSVKGRFTISRDNAKNTVYLQMNSLKPEDTAVYYCAADSYPDYDYWGQGTQVTVSS | low polyreactivity
2 | QVQLVESGGGLVQAGGSLRLSCAASGRTFGYYAMGWYRQAPGKERELVAAITDSGDITYYADSVKGRFTISRDNAKNTVYLQMNSLKPEDTAVYYCAADSYEFWSEVYTGESWGQGTQVTVSS | low polyreactivity
3 | QVQLVESGGGLVQAGGSLRLSCAASGRTFGYYAMGWYRQAPGKERELVAAITGSGGSTYYADSVKGRFTISRDNAKNTVYLQMNSLKPEDTAVYYCAVESVRTRGWIRLDYWGQGTQVTVSS | high polyreactivity
4 | QVQLVESGGGLVQAGGSLRLSCAASGRTFGYYAMGWYRQAPGKERELVASITTGGSTDYADSVKGRFTISRDNAKNTVYLQMNSLKPEDTAVYYCAAKPNPYTKARYYYWGQGTQVTVSS | high polyreactivity
5 | QVQLVESGGGLVQAGGSLRLSCAASGRTFGYYGLGWSRQAPGKERELVAAITGSGGSTYYADSVKGRFTISRDNAKNTVYLQMNSLKPEDTAVYYCNTARRHGQTQGGDYWGQGTQVTVSS | high polyreactivity
6 | QVQLVESGGGLVQAGGSLRLSCAASGRTFGYYVMGCYRQAPGKERELVAAISASGGSTYYADSVKGRFTISRDNAKNTVYLQMNSLKPEDTAVYYCNADYLSQPDWYYFYLFDYWGQGTQVTVSS | high polyreactivity
7 | QVQLVESGGGLVQAGGSLRLSCAASGRTFHAYAMGWSRQAPGKGRELVAAITRTGTTHYADSVKGRFTISRDNAKNTVYLQMNSLKPEDTAVYYCAAQHVRVDAQFVLQGYDYWGQGTQVTVSS | low polyreactivity
8 | QVQLVESGGGLVQAGGSLRLSCAASGRTFHDYAMGWYRQAPGKERELVASISSGGSTYYADSVKGRFTISRDNAKNTVYLQMNSLKPEDTAVYYCAAYYYSTLYYRYDYWGQGTQVTVSS | low polyreactivity
9 | QVQLVESGGGLVQAGGSLRLSCAASGRTFHGYGMGWYRQAPGKERELVAAISWSGGSTYYADSVKGRFTISRDNAKNTVYLHMNSLKAEDTAVYYCAADVYRYWISEYDDYWGQGTQVTVSS | low polyreactivity
10 | QVQLVESGGGLVQAGGSLRLSCAASGRTFHHNTMGWYRQAPGKERELVAAISSGGSTNYADSVKGRFTISRDNAKNTVYLQMNSLKPEDTAVYYCNADGGFLQRTGYDYWGQGTQVTVSS | low polyreactivity
11 | QVQLVESGGGLVQAGGSLRLSCAASGRTFHIYAMGWYRQAPGKERELLAAINYSGGSTYYADSVKGRFTISRDNAKNSVYLQMNSLKPEDTAVLYCAAVVYNVPWWFEYDYWGQGTQVTVSS | low polyreactivity
12 | QVQLVESGGGLVQAGGSLRLSCAASGRTFHPYAMGWYRQAPGKERELVAAITISTNYADSVKGRFTISRDNAKNTVYLQMNSLKPEDTAVYYCNKDGTHEVYVGGYEDDYWGQGTQVTVSS | low polyreactivity
13 | QVQLVESGGGLVQAGGSLRLSCAASGRTFHRYVMGWYRQAPGKERELVAAITSGGRTTYADSVKGRFTISRDNAKNTVYLQMNSLKPEDTAVYYCAAELTVRGTWVQQRTFRYDYWGQGTQVTVSS | low polyreactivity
14 | QVQLVESGGGLVQAGGSLRLSCAASGRTFHSYAMGWYRQAPGKERELVAAINNGGGTYYADSVKGRFTISRDNAKNTVYLQMNSLKPEDTAVYYCAADRYRYRYNAPRYAYDYWGQGTQVTVSS | high polyreactivity
15 | QVQLVESGGGLVQAGGSLRLSCAASGRTFHYYAMGWYRQAPGKERELVAAISSTGGSTYYADSVKGRFTISRDNAKHPVYVQMNSLKPADTAVYSCAARQFGYYHVRNEYWGQGTQVTVSS | high polyreactivity
16 | QVQLVESGGGLVQAGGSLRLSCAASGRTFHYYAMGWYRQAPGKERELVASITYNGGDTYYADSVKGRFTISRDNAKNTVYLQMNSLKPEDTAVYYCAAEYYGHRYDYWGQGTQVTVSS | low polyreactivity
17 | QVQLVESGGGLVQAGGSLRLSCAASGRTFIEYAMGWYRQAPGKERELVAAISRNDGGSTYYADSVKGRFTISRDNAKNTVYLQMNSLKPEDTAVYYCAARRYISAHVRYGSWGQGTQVTVSS | high polyreactivity
18 | QVQLVESGGGLVQAGGSLRLSCAASGRTFIFNAMGWYRQAPGKERELVAAISSGGGTNYADSVKGRFTISRDNAKNTVYLQMNSLKPEVTAVYYCAADPRDHYSYVYDGYKYDYWGQGTQVTVSS | low polyreactivity
19 | QVQLVESGGGLVQAGGSLRLSCAASGRTFIGYAMGWYRHAPGKERELVATISVSGGSTYYADSVKGRFTISRDNAKNTVYLQMKSLKPEDTAVYYCDKAYLRYYDGPYDYWGQGTQVTVSS | low polyreactivity
20 | QVQLVESGGGLVQAGGSLRLSCAASGRTFIGYAMGWYRQAPGKERELVAASSSGGNTYYADSVKGRFTISRDNAKNTVYLQMNSLKPEDTAVYYCAAKGYRRVARYFIGDYWGQGTQVTVSS | low polyreactivity
21 | QVQLVESGGGLVQAGGSLRLSCAASGRTFIGYAMGWYRQAPGKERELVATISVSGGSTYYADSVKGRFTISRDNAKNTVYLQMNSLKPEVTAVYYCAKAYLRYYDGPYDYWGHGTQVTVSS | low polyreactivity
22 | QVQLVESGGGLVQAGGSLRLSCAASGRTFIINTMGWYRQAHGKERELVAAISKNGATTNYADSVKGRFTISRDNAKNTVYFQMNSLKPEDTAVYYCNARYSGYLRLDYWGQGTQVTVSS | low polyreactivity

Row | Sequence | polyreactivity (PSR sort gate)
23 | QVQLVESGGGLVQAGGSLRLSCAASGRTFIKNAMGWYRQAPGKERELVAAINWSGTRTYYADSVKGRFTISRDNAKNTVYLQMNSLKPEDTAVYYCAKVIARYVRYDYWGQGTQVTVSS | high polyreactivity
24 | QVQLVESGGGLVQAGGSLRLSCAASGRTFILYAMGWYRQAPGKERELVAAITRRGGRTYYADSVKGRFTISRDNAKNTVYLQMNSLKPEDTAVYYCAADQYYYTQPSDMDYWGQGTQVTVSS | high polyreactivity
25 | QVQLVESGGGLVQAGGSLRLSCAASGRTFIRNAMGWYRQAPGKERELVAAISGTGGSTYYADSVKGRLTISRDNAKNTVYLQMNSLKPEDTAVYYCAADRPAPGYDYWGQGTQVTVSS | low polyreactivity
26 | QVQLVESGGGLVQAGGSLRLSCAASGRTFIRNVMGWYRQAPGKERELVAAISTRGGSTYYADSVKGRFTISRDIAKNTVYLQMNSMKPEDTAVYYCASVIRCRYSYYEYDYWGQGTQETVSS | high polyreactivity
27 | QVQLVESGGGLVQAGGSLRLSCAASGRTFISYAMGWYRQAPGKERELVAAISGRGGSTYFADSVKGRFTISRDNAKNTVYLQMNSLKQEDTAVYYCAAEWFGVYRRYKYDYWGQGTQVTVSS | low polyreactivity
28 | QVQLVESGGGLVQAGGSLRLSCAASGRTFIVYAMGWYRQAPGKERELVAAITRSGSSTYYADSVKGRFTISRDNAKNTVYLQMNSLKPEDTAVYYCAADVGFGGYSHFDPYEYWGQGTQVTVSS | high polyreactivity
29 | QVQLVESGGGLVQAGGSLRLSCAASGRTFIWNAMGWYRQAPGKERELVADISIRGGSTNYADSVKGRFTISRDNAKNTVYFQMNSLKPEDTAVYYCAAEYYDSGNDYWGQGTQVTVSS | low polyreactivity
30 | QVQLVESGGGLVQAGGSLRLSCAASGRTFIYNAMAWYRQAPWKERELVAGITRSGGSTYYADSVKGRFTISRDNAKNTVYLQMNSLKPEDTAVYYCAAARRTKTFSSYYYWGQGTQVTVSS | high polyreactivity
31 | QVQLVESGGGLVQAGGSLRLSCAASGRTFIYYAMGWYRQAPGKERELVAAISRSGGSTYYADSVKGRFTISRDNAKNTVYLQMNSLKPEDTAVYYCAAADPLGYEYDSWGQGTQVTVSS | high polyreactivity
32 | QVQLVESGGGLVQAGGSLRLSCAASGRTFIYYAMGWYRQAPGKERELVAGISRNGGRTYYADSVKGRFTISRDNAKNTVYLQMNSLKPEDTAVYYCNARTYSYRGYNYWGQGTQVTVSS | high polyreactivity
33 | QVQLVESGGGLVQAGGSLRLSCAASGRTFKDYAMGWYRQAPGKERELVAAISWSGGDTYYADSVKGRFTISRDNAKNTVYLQMNSLKPEDTAVYYCNADPSGVFFYSLEFDYWGQGTQVTVSS | low polyreactivity
34 | QVQLVESGGGLVQAGGSLRLSCAASGRTFKFYAMGWDRQAPGSDRELVAAISSSGGRTYYADSVKGRFTISRDNAKNTVYLQMNSLKPEDTAVYYCAAVPGSKFVQKDDYWGQGTQVTVSS | low polyreactivity
35 | QVQLVESGGGLVQAGGSLRLSCAASGRTFKFYAMGWYRQAPGKERELVAGIGSGGRTYYADSVKGRFTISRYNAKNTVYLHMNSLKPEDTAVYYCAARQYGPRYTYYYWGQGTQVTVSS | high polyreactivity
36 | QVQLVESGGGLVQAGGSLRLSCAASGRTFKGYAMGWYRQAPGKEREFVATITSRGDRTYYADSVKGRFTISRDNAKNTVSLQMNSLKPEDTAVYYCNARYYWKQAADYNYWGQGTQVTVSS | low polyreactivity
37 | QVQLVESGGGLVQAGGSLRLSCAASGRTFKGYAMGWYRQAPGKERELVAAITGSVGSTYYADSVKGRFTISRDNAKNTVYLQMNSLKPEDTAVYYCAKRWKATRARYDYWGLGTQVTVSS | high polyreactivity
38 | QVQLVESGGGLVQAGGSLRLSCAASGRTFKINAMGWYRQAPGKERELVATITGRGASTYYADSVKGRFTISRDNAKNTVYLQMNSLKPEDTAVYYCAARTEVPTRYNYWGQGTQVTVSS | high polyreactivity
39 | QVQLVESGGGLVQAGGSLRLSCAASGRTFKIYAMGWYRQAPGKERELVAAISRGGRTYYADSVKGRFTISRDNAKNTVYLQMNSLKPEDTAVYYCAADLLISPEFYYWGQGTQVTVSS | high polyreactivity
40 | QVQLVESGGGLVQAGGSLRLSCAASGRTFKKYAMGWYRQAPGKERELVAAITGSGGSTYYADSVKGRFTISRDNAKNTVYLQMNILTPEDTAVYYCAAYAYGVWHSQDGGNYWGQCTQVTVSS | low polyreactivity
41 | QVQLVESGGGLVQAGGSLRLSCAASGRTFKKYAMGWYRQAPGKEREVVAAITSRVGSTSYADSVKGRFTISRDNAKNTVYLQMNSLKPEDTAVYYCAARYSVGTGYGYWGQGTQVTVSS | high polyreactivity
42 | QVQLVESGGGLVQAGGSLRLSCAASGRTFKPYAMGWYRQAPGKERELVAAISTRGGSTYYADSVKGRFTISRDNAKNTVYLQMNSLKPEDTAVYYCAATQPGRDYDYWGQGTQVTVSS | low polyreactivity
43 | QVQLVESGGGLVQAGGSLRLSCAASGRTFKSYAMGWYRQAPGKERELVAAISKRGGSTYYADSVKGRFTISRDNAKNTVYLQMNSLKPEDTAVYYCAADARYRSYSLLVRPGRYYYWGQGTQVTVSS | high polyreactivity
